In US20260226185A1 (MAYO FOUNDATION FOR MEDICAL EDUCATION AND RESEARCH, published 2026):

Target: T1, human B-cell activating factor receptor (BAFF-R) polypeptide (human, UniProt Q96RJ3 1-184)
T1 sequence: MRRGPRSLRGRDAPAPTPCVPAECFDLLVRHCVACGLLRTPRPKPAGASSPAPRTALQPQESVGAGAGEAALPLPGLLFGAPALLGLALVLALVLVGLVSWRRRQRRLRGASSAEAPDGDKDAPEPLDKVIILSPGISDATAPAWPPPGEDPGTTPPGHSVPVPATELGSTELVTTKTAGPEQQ
Experiment: flow cytometry on BAFF-R expressing 293FT cells vs 293FT cells, R-PE goat anti-mouse IgG detection
Experimental: The lead clone was identified and advanced to purification. […] Following two washes in FACS (PBS with 2% bovine serum albumin), cells were incubated with R-PE conjugated goat anti-mouse IgG for 30 minutes at 4° C. Cells were then washed as before and resuspended in 400 μL FACS for analysis on an Attune flow cytometer (Thermo Fisher). […] Anti-BAFF-R monoclonal antibody development was monitored by R-phycoerythrin conjugated goat anti-mouse IgG (BD Bioscience, San Jose, California).

B1: anti-BAFF-R monoclonal antibody C21 (Clone #1) (antibody, V domains shown)
VH: DVQLVESGGGLVQPGGSRKLSCAASGFTFSSFGMHWVRQAPEKGLEWVAYINSGSSTINYADTVKGRFTISRDNPKNTLFLQMTSLRSEDTAMYYCTIYYYAMDYWGQGTSVTVSS
VL: DIVMSQSPSSLTVSVGEKVSMSCKSSQTLLYSGNQKNYLAWYQQKPGQSPKLLIYWASTRESGVPDRFAGSGSGTDFTLTISSVKAEDLAVYYCQQYYIYPPWTFGGGTKLEIK
notes: Mouse hybridoma antibody, tested as crude supernatant and as purified mAb and detected with R-PE goat anti-mouse IgG; the mouse constant regions and the isotype are not; also called hybridoma clone 21; mAb C21
  binding result: binds
